Results as given in PMC8391968.

Biological target: transcriptional enhancer associated domain (TEAD) transcription factor (human (endogenous in A375)) (UniProt P28347)
UniProt P28347, sequence (P28347 whole entry, the tested form may be a part): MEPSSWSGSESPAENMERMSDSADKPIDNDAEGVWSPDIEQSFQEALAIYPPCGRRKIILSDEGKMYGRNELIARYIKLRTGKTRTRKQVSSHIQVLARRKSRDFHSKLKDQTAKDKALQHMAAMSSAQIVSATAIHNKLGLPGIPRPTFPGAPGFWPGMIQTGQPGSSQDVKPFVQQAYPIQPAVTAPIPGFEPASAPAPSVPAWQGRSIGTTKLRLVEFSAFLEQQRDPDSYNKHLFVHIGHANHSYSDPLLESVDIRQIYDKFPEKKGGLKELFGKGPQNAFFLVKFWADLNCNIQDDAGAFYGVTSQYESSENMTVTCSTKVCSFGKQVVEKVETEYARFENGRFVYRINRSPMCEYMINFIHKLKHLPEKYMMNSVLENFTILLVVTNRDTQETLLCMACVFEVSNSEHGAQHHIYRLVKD

TEAD luciferase reporter (8xGTIIC) in A375 TEAD luciferase-stable melanoma cells, decrease of luciferase expression with the small molecule BY03 at 10 nM to 10 μM: 75%
TEAD-dependent luciferase reporter (8xGTIIC) in HEK293T cells with ectopic expression of YAP-S127A, decrease of luciferase expression with the small molecule BY03 at 20 μM: 68%
Substance: yes-associated protein (YAP) (from UniProt P46937 1-504) (natural protein)
